From patent US20240336672A1

How the values were obtained:
Settings in all cases: remark: other sources report otherwise
[1] = target: SARS-CoV-2 RBD (B.1.1.7) domain (SARS-CoV-2); experiment: ELISA
[2] = target: SARS-CoV-2 RBD (B.1.351) domain (SARS-CoV-2); experiment: ELISA
[3] = target: SARS-CoV-2 RBD (P.1) domain (SARS-CoV-2); experiment: ELISA
[4] = target: T1, SARS-CoV-2 Spike ectodomain (tri-S), Wuhan (SARS-CoV-2), P0DTC2; experiment: ELISA
[5] = target: T1, SARS-CoV-2 Spike ectodomain (tri-S), …; experiment: competition ELISA, spike protein binding to ACE2 ectodomain
[6] = target: T1, SARS-CoV-2 Spike ectodomain (tri-S), …; experiment: competition ELISA vs bio-Cv2.3235
[7] = target: T1, SARS-CoV-2 Spike ectodomain (tri-S), …; experiment: biotinylated tri-S on immobilised ACE2, competition ELISA
[8] = target: T1, SARS-CoV-2 Spike ectodomain (tri-S), …; experiment: SPR (Biacore), IgG immobilized, viral protein as analyte

B1: Cv2.3194 (recombinant human IgG1) (antibody)
heavy: EVQLVESGGGLIQPGGSLRLSCAASGITVTSNYMSWVRQAPGKGLEWVSVIYPGGSTFYADSVKGRFTISRDNSKNTLYLQMNSLRAEDTAVYYCARDLVVYGMDVWGQGTTVTVSSASTKGPSVFPLAPSSKSTSGGTAALGCLVKDYFPEPVTVSWNSGALTSGVHTFPAVLQSSGLYSLSSVVTVPSSSLGTQTYICNVNHKPSNTKVDKKVEPKSCDKTHTCPPCPAPELLGGPSVFLFPPKPKDTLMISRTPEVTCVVVDVSHEDPEVKFNWYVDGVEVHNAKTKPREEQYNSTYRVVSVLTVLHQDWLNGKEYKCKVSNKALPAPIEKTISKAKQPREPQVYTLPPSRDELTKNQVSLTCLVKGFYPSDIAVEWESNGQPENNYKTTPPVLDSDGSFFLYSKLTVDKSRWQQGNVFSCSVMHEALHNHYTQKSLSLSPGK
light: EIVLTQSPGTLSLSPGERATLSCRASQSVSSSYLAWYQQKPGQAPRLLIYGASSRATGIPGRFSGSGSGTDFTLTISRLEPEDFAIYYCQQGVTFGGGTKVEIKRTVAAPSVFIFPPSDEQLKSGTASVVCLLNNFYPREAKVQWKVDNALQSGNSQESVTEQDSKDSTYSLSSTLTLSKADYEKHKVYACEVTHQGLSSPVTKSFNRGEC
With B1 the OD405nm [1] was 3.4, the OD405nm [2] was 3.5 and the OD405nm [3] was 3.4. It also gave an OD405nm [4] of 3.5, an ACE2 Block (%) [5] of 91% and a % inhibition (competition) [6] of 97. The EC50 [7] was 0.31 µg/mL, the Kd [8] was 459 pM and the koff [8] was 0.00112 s⁻¹. For the same binder, the kon [8] was 2.45e+06 M⁻¹ s⁻¹.
